Test system: MS2 coat protein
Test: apparent KD of MS2 coat protein; higher = weaker reporter binding
Settings: Eterna round: R107
Method in brief: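 Designed RNA switches were made by on-chip transcription from Illumina sequencing clusters and then titrated with SNAP-549-labelled MS2 coat protein. Twofold steps ran from 0.7 or 1.5 nM to 3 µM, each lasting 0.8–1.5 h early and 10–20 min late, in 100 mM Tris-HCl pH 7.5, 80 mM KCl, 4 mM MgCl2, without or with constant ligand. Apparent KD is the per-design median of normalised cluster binding-curve fits.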

[1] = input ligand: theophylline 20 uM
[2] = input ligand: tryptophan 2.4 mM
[3] = input ligand: theophylline 2 mM

Sequence	apparent KD of MS2 coat protein (input ligand: arginine 13.2 mM) [nM]	apparent KD of MS2 coat protein [1] [nM]	apparent KD of MS2 coat protein [2] [nM]	apparent KD of MS2 coat protein (input ligand: none) [nM]	apparent KD of MS2 coat protein [3] [nM]
UCACGUGGGAAUGAUACCAGCCACAUGAGGAUCACCCAUGUGCAUGGUGUGAGCUUCACGGGCCCUUGGCAGCAUUUCAAGUCGC [Agelaus]	39.9	93.1	37.9		
UCGAUGGUACCCGAUACCAGCAAUACAUCACAGACCUGAUACAUGAGGAUCACCCAUGUGUGCCCUUGGCAGCGGGUCCUGAAAA [theeternabot_exclusion_MS2_Theo_B_25]	17.5	28.5	20.6		
UCGCUCGCCGCAAGGCGAGCGAGUUGCGAUACCAGCCCGGAAACGGGCCCUUGGCAGCGCACAUGAGGAUCACCCAUGUCAUGUU [#1 Exclusion - Theophylline A Attempt #4 (HarryS)]	24.7	31.3	16.1	25	30.4
UCGCUCUGGGUGGGAUCCGGAGAUGUGGAAGGAGCGCUGGUUACAGCAGGUAGGUCGCCAACGGACAUGAGGAUCACCCAUGUAC [Same State - Arginine A (Freestyle 16)]	53.3	49.4	36.2	41.3	39.5
UCGGGCAGAGCGGCCGCCACUGUAUGGCAUGCGGAUGAAGGAACAUGAGGAUCACCCAUGUAGAUUAGGACCGGGCUUGCGGAGA [p''pmullin]	29.1	22.9	20	19.8	17.7
UCGGGCAGAGCGGCCGCCACUGUAUGGCGUGCGGAUGACGGAACAUGAGGAUCACCCAUGUUGUUUAGGACCGGGCUUGCCGCGA [cocmullin]	14	14.7			11.5
UCGUAUGCGGCGGCCGCCACUCGCGGAUAACGAGAGCUUAACAUGAGGAUCACCCAUGUGUCAUGGAGGACCGGGCCCAUUCACA [popmullin]	30.4	40.2			37.5
UCGUGUAUAACGGAUACCAGUGAGAAGGAUACAUGAGGAUCACCCAUGUGAGUUGAUGUACACCCUUGGCAGCUGUAUAUAUCUA [llpmullin]	58.3	81.9	73.3		
UCGUGUGUUUCGGAUACCAGUGAAAUCGAUACAUGAGGAUCACCCAUGUGAGAGGAUGUACACCCUUGGCAGCUGGCUGUAGCGG [yyzmullin]	32.1	56.9	44.3		
UCUGUUUGCUUUGUUUGUUUCUUCUUUGAGCGAGGACCGGUACGGCCGCCACUCGGGUUACAUGAGGAUCACCCAUGUGGUUUCU [Interesting]	72.3	163			149
UGACAUUGCUCAGAUACCAGACAUGAGGAUCACCCAUGUGCCAAAUACGUACAAAUAAAUGUCCCUUGGCAGCUGAGCAAUGUCU [TheoBX 12 #MS2Left #Theo2]	16.2	22.2	14.4		
UGAGAGGGCAGAAGGAGCGACAUGAGGAUCACCCAUGUCUCCCGUUAUGGGAGUUCUUUAGGUCAGGUAGGUCGCUGGCCUCUCA [#1 Exclusion - Arginine B Attempt #9 (Inspired by Omei)]	54	135	99.5	117	146
UGAUAUAGGGAGCCGUAUCAGAAACCUGAAGGAGCGCCGGAAAAGGCAGGUAGGUCGCGGGAACAUGAGGAUCACCCAUGUAUUC [dancer_small]	17.4	21.2	18.3	19	19.2
UGAUAUGUAGGAAGGAGCGCAUACUUCACAUGAGGAUCACCCAUGUCAAGACGUGAGUCAGUGCAGGUAGGUCGCCUAGUUAUGA [Same State - Arginine B (Freestyle 20)]	30.2	41	36	44.9	36.9
UGCAUUAUACAUGGAUCACCCAUGUAGACACGAGGACCGGUACGGCCGCCACUCGGAAGAGGGAACAUGAGGAUCACCCAUGUGA [Try A SS t1]	25.6	73.1			55
UGCCUAAAGUCGGCCGCCACUGAUGGUAUCCUCUCCUCGAGGUCACACAUGAGGAUCACCCAUGUCAGGACCGGGACUAGUGAGA [theeternabot_exclusion_MS2_Trp_B_36]	7.11	9.65			7.48
UGGUACAUGGCGGCCGCCACUUCACGUAAAAUAAAAACUUGAGGAACACCCAAGUAAUAAGUUGGGAGGACCGGGUCAUGUACCU	35.3	41.7	26.1	36.2	39.1
UGGUACAUGGCGGCCGCCACUUCACGUAAAAUAAAAACUUGAGGAUCACCCAAGUAAUAAGUUGGGAGGACCGGGUCAUGUACCU	18.4	23.2	14		19.2
UGGUUUCGGUCAAUCACCGGUCCCUGGGAAGGAGCGGACUCAUGUCCAGGUAGGUCGCCCAGACAUGAGGAUCACCCAUGUGACA [Tiusdiin]	32.5	409	24.1	174	142

Sequence	apparent KD of MS2 coat protein (input ligand: arginine 13.2 mM) [nM]	apparent KD of MS2 coat protein [1] [nM]	apparent KD of MS2 coat protein [2] [nM]	apparent KD of MS2 coat protein (input ligand: none) [nM]	apparent KD of MS2 coat protein [3] [nM]
UGUAACAUGAGGAUCACCCAUGUGAGUGAUACCAGAUUAGUAGUAGUCCCUUGGCAGCACAUUGGGCGAGUGUAUAGUCUAUGCG [Same State - Theophylline A (Freestyle 11)]	94.6	219	155		
UGUAACAUGAGGAUCACCCAUGUGCACGAUACCAGCUUCGAAAGAGGCCCUUGGCAGCGUAUGCGUAAGCUGUAUAAUAUAUAUC [#28 SameState-TheophyllineA]	11.1	14.4	10.6		
UGUAUGGACUGAAGGAGCGGGUAAAUAACUUGAGGAUCACCCAGGUAAAAGGCGAAAGCCACCCAGGUAGGUCGCAGUCCAUACU	23.6	32.1	25.5	21.1	29.2
UGUAUGGACUGAAGGAGCGGGUAAUAAACCUGAGGAUCACCCAGGUAAUAGGCGAAAGCCACCCAGGUAGGUCGCAGUCCAUACU	9.98	16.1	13.2	14.1	15.1
UGUAUGGACUGAAGGAGCGGGUUGAUAUCAUGAGGAUCACCCAUGGAAAAGGCGAAAGCCGCCCAGGUAGGUCGCAGUCCAUACU	25.1	38	26		37.5
UGUAUGGACUGAAGGAGCGGUAGAUAACCUGAGGAUCACCCGGGUAAUAAAGGCGAAAGCCACCAGGUAGGUCGCAGUCCAUACU	93.3	173	262	206	321
UGUAUGUGAUCUGAUACCAGCUUUGAUAACCUGAGGAUCACCCUGGUAAAGGCGAAAGCCAGCCCUUGGCAGCAGAUCGCAUACU	69.8	39.6	49.6	49.1	20.7
UGUAUGUGAUCUGAUACCAGUCCAACUGGUAAAAGAUGAGGAUCACCCAUCUAAAAUUGGGACCCUUGGCAGCAGAUCGCAUACU	91.7	122	264	264	13.7
UGUAUGUGAUGGGAUACCAGACCAGCUGGUGAUACAUGAGGAUCACCCAUGUAAAUUUGGGUCCCUUGGCAGCCCAUCGCAUACU [SSTheo B #25]	32.4	68	23.9	22	63.7
UGUAUGUGAUUUGAUACCAGACCAGCUGGUGGUACUUGAGGAACACCCAAGUAGGUUUGGGUCCCUUGGCAGCAAAUCGCAUACU [SS Theo B #24 Ms11]	110	160	138		29.9
UGUAUGUGAUUUGAUACCAGACCAGCUGGUGGUGCAUGAGGAACACCCAUGCAGGUUUGGGUCCCUUGGCAGCAAAUCGCAUACU [SS Theo B #24 Ms19]	149	150	130		33
UGUAUGUGAUUUGAUACCAGACCAGCUGGUGGUGCAUGAGGAUCACCCAUGCAGGUUUGGGUCCCUUGGCAGCAAAUCGCAUACU [SS Theo B #24 Ms17]	72.5	135	129	119	21.6
UGUAUGUGAUUUGAUACCAGACCAGCUGGUGUUACAAGAGGAUCACCCUUGUAGGUUUGGGUCCCUUGGCAGCAAAUCGCAUACU [SS Theo B #24 Ms4]	94.2	135	190	136	17.5
UGUAUGUGAUUUGAUACCAGACCAGCUGGUGUUAUAUGAGGAUCACCCAUAUAGGUUUGGGUCCCUUGGCAGCAAAUCGCAUACU [SS Theo B #24 Ms14]	40.7	38.8	32.5	28.6	17.4
UGUAUUACGAAAGUAGUACAUCGUGUUCGACGAGGACCGGUACGGCCGCCACUCGGACAUGAGGAUCACCCAUGUAGCGAAAGCU [Tryptophan A 25]	93.8	354			491
UGUGUCGUCUGAAGGAGCGGCUCUUGAUCCUCGUGAGACAUGAGGAUCACCCAUGUCUCGAGCCAGGUAGGUCGCAGGCGGCACA [#26 Exclusion - Arginine B]	7.08	12.8	14.1	16.2	13.6
UUAAUCAAUAUAGAAAACUAUAUUGCAGAAGGAGCGUGAUAAAACACAGGUAGGUCGCUGAAGGGAACAUGAGGAUCACCCAUGU [AstrosSSArgA#5]	24.8	32.5	26.2	23.4	26.3
UUAAUCAGGUUAGAAAACUAAUUUGCAGAAGGAGCGUGAUAAAACACAGGUAGGUCGCUGAAGGGAACAUGAGGAUCACCCAUGU [AstrosSSArgA#10]	22.9	32.7	26	26.3	28.5
UUAAUGGAGCUUUAAUUUACGAUUUCUGAUACCAGUGUUUCAUUUCACCCUUGGCAGCAGUGACAUGAGGAUCACCCAUGUAAUA [JR_Nu_SSTheophyA_Sub022]	23.7	35.5	26.4		

Source: the supplement of paper PMC9170038
